The test system of data set [1] is DinJ (Lacticaseibacillus paracasei 4366). Nature of the data set: EMSA. As to conditions: KDapp, Hill n 3.7 ± 0.2; salmon sperm DNA competitor; EMSA: 2 nM DNA, 128 ng salmon sperm DNA in 10 uL, 50 mM Tris-HCl pH 7.5, 50 mM KCl, 5% glycerol, room temperature 10 min, 6% native PAGE in TBE; RNAP …. On the technique in general: In EMSA bound probe runs differently from free probe, usually more slowly.

Data set [2] concerns the molecule itself. Put plainly: cross-linking; glutaraldehyde 0.1%, then SDS-PAGE; DinJ at 4 and 10 uM, DinJ-YafQ at 2 and 4 uM.

In turn, 194-bp dinJ-yafQ promoter fragment gave a Kd in data set [1] of 61 nM.

B1: His-tagged DinJ (L. paracasei antitoxin DinJ, N-terminal hexa-His tag) (natural protein)
chain: MSNEKRETRLSIRIDPALKEAAQNVANDMGMDLSTAVNMFLAKIVKDHALPFTPTSLPAETLQALKEAKSSRVLKRYRTPEVMWKDLEV
As for B1, the stoichiometry N (as a rule, a count of units in the complex or per binding partner) in data set [2] was 2.

Source of the values: article PMC9592637, “Functional characterization and transcriptional repression by Lacticaseibacillus paracasei DinJ-YafQ” (Applied Microbiology and Biotechnology, 2022).
